Assay results: paper doi:10.1101/517771

Biological target: FLAG-BLM (Bloom's Syndrome helicase) (human) (UniProt P54132)
Chain of UniProt P54132 (P54132 whole entry): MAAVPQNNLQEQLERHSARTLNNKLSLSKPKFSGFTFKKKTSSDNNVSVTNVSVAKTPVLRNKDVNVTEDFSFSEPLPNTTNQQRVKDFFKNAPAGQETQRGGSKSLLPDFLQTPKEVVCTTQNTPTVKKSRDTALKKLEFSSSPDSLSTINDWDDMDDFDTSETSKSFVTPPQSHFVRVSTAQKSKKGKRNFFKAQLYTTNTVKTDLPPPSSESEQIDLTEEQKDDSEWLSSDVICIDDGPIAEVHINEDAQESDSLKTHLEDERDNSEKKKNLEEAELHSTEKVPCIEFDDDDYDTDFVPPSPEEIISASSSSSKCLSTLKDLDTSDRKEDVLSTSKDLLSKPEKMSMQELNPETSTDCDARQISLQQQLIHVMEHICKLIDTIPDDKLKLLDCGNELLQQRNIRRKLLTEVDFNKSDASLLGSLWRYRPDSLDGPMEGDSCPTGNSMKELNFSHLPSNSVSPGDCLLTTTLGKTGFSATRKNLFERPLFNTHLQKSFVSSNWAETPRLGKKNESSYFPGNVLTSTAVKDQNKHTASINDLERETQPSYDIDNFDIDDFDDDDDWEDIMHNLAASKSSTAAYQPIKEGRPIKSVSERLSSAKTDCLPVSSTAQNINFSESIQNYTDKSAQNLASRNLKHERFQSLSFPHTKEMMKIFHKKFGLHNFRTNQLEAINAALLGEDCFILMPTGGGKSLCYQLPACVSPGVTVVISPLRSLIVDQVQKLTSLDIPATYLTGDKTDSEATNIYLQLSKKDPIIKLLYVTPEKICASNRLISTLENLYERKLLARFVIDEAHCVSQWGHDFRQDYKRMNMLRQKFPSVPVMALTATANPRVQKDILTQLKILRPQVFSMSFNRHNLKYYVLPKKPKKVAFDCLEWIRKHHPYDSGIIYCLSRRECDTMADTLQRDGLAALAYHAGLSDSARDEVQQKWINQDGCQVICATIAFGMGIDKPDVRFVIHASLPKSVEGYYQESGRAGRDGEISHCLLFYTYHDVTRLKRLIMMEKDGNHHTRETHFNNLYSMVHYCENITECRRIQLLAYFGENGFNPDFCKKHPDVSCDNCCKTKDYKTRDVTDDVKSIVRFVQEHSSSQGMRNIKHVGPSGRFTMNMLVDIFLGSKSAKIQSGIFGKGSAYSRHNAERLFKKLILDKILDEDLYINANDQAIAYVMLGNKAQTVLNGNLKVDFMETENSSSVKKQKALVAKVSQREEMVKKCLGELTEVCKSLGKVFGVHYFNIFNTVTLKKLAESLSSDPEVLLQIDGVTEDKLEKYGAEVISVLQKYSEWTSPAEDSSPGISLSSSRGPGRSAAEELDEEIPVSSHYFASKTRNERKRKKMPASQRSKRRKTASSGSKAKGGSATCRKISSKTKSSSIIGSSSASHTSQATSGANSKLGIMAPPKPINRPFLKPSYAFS

In the case of “phosphorylated human RPA (pRPA) (from UniProt P27694 1-616; P15927 1-270) (complex)”, the fold decrease in BLM/EXO1 resection processivity after addition of pRPA is reported as 3 fold and the fraction of BLM/DNA2 molecules that stopped resecting DNA upon addition of pRPA is reported as 30%.
